Where two headings read alike, the source gives them in different places. Blank lines part the entries; values can stand above or below the binder they belong to.
Experiments:
Test in all cases: cell-based or functional assay
[1] = biological target: T1, recombinant human TFPI (tissue factor pathway inhibitor) (human, UniProt P10646 29-304)
[2] = biological target: T1, recombinant human TFPI (tissue factor …); remark: listed apart in the source
[3] = biological target: T1, recombinant human TFPI (tissue factor …); remark: listed apart in the source
[4] = biological target: T1, recombinant human TFPI (tissue factor …); remark: listed apart in the source
[5] = biological target: T1, recombinant human TFPI (tissue factor …); remark: listed apart in the source
[6] = biological target: T1, recombinant human TFPI (tissue factor …); remark: listed apart in the source
[7] = biological target: T1, recombinant human TFPI (tissue factor …); remark: listed apart in the source
[8] = biological target: T1, recombinant human TFPI (tissue factor …); remark: listed apart in the source
[9] = biological target: T1, recombinant human TFPI (tissue factor …); remark: listed apart in the source
[10] = biological target: T1, recombinant human TFPI (tissue factor …); remark: listed apart in the source
[11] = biological target: T1, recombinant human TFPI (tissue factor …); remark: listed apart in the source

B1: clone 11 (antibody, V domains shown)
VH: EVQLVESGGGLVKPGGSLRLSCAASGFTFSSYAMNWVRQAPGKGLEWVGTITTGGSYTYYADSVEGRFTISRDNAKNSLYLQMNSLRAEDTAVYYCARQDGNFLMDYWGQGTLVTVSS
VL: DVVMTQTPLSLPVTLGQPASISCKSSPSLLDIDGKTYLNWLQQRPGQSPKRLIYLVSKLDSGVPDRFTGSGSGTDFTLKISRVEAEDVGVYYCWQGTHFPFTFGQGTKVEIKR
FXa assay % of FXa alone, 2.5 nM Ab, 10 nM TFPI [1]: 7%
FXa assay % of FXa alone, 5 nM Ab, 10 nM TFPI [1]: 29.6%
FXa assay OD, 2.5 nM Ab, 10 nM TFPI [1]: 0.0575
FXa assay OD, 5 nM Ab, 10 nM TFPI [1]: 0.244
FXa assay OD, 10 nM Ab, 10 nM TFPI [1]: 0.672
FXa assay OD, 20 nM Ab, 10 nM TFPI [1]: 0.734
effect of inhibiting TFPI, FXa activity assay, Ab 10 nM [2]: ~81%
effect of inhibiting TFPI, FXa activity assay, Ab 20 nM [2]: ~89%

B2: clone 3024 (antibody, V domains shown)
VH: EVQLVESGGGLVKPGGSLRLSCAASGFTFSSYAMSWVRQAPGKGLEWVSTITTGGSYTYYADSVQGRFTISRDNAKNSLYLQMNSLRAEDTAVYYCARQDGNFLMDYWGQGTLVTVSS
VL: DVVMTQTPLSLPVTLGQPASISCKSSQSLLDSDGKTYLNWLQQRPGQSPKRLIYLVSKLDSGVPDRFTGSGSGTDFTLKISRVEAEDVGVYYCWQGTHLPFTFGQGTKVEIKR
FXa assay % of FXa alone, 2.5 nM Ab, 10 nM TFPI [3]: 3.6%
FXa assay % of FXa alone, 5 nM Ab, 10 nM TFPI [3]: 4.2%
FXa assay % of FXa alone, 10 nM Ab, 10 nM TFPI [3]: 6.6%
FXa assay % of FXa alone, 20 nM Ab, 10 nM TFPI [3]: 32.5%
FXa assay OD, 2.5 nM Ab, 10 nM TFPI [3]: 0.026
FXa assay OD, 20 nM Ab, 10 nM TFPI [3]: 0.234

B3: clone 1123 (antibody, V domains shown)
VH: EVQLVESGGGLVKPGGSLRLSCAASGFTFSSYAMNWVRQAPGKGLEWVSTITTGGSHTYYADSVEGRFTISRDNAKNSLYLQMNSLRAEDTAVYYCARQDGHFLMDYWGQGTLVTVSS
VL: DVVMTQTPLSLPVTLGQPASISCKSSQSLLDIDGKTYLNWLQQRPGQSPKRLIYLVSKLDSGVPDRFTGSGSGTDFTLKISRVEAEDVGVYYCWQGTHFPFTFGQGTKVEIKR
% of Normalized, TF/FVIIa/FX complex assay, Ab 1.56 nM [4]: 14.7%
% of Normalized, TF/FVIIa/FX complex assay, Ab 3.13 nM [4]: 15.8%
% of Normalized, TF/FVIIa/FX complex assay, Ab 6.25 nM [4]: 15.7%
% of Normalized, TF/FVIIa/FX complex assay, Ab 12.5 nM [4]: 16.4%
% of Normalized, TF/FVIIa/FX complex assay, Ab 25 nM [4]: 28.5%
% of Normalized, TF/FVIIa/FX complex assay, Ab 50 nM [4]: 80.7%
% of Normalized, TF/FVIIa/FX complex assay, Ab 100 nM [4]: 94.8%
FXa assay % of FXa alone, 2.5 nM Ab, 10 nM TFPI [5]: 6.5%
FXa assay % of FXa alone, 5 nM Ab, 10 nM TFPI [5]: 14.7%
FXa assay OD, 2.5 nM Ab, 10 nM TFPI [5]: 0.0315
FXa assay OD, 5 nM Ab, 10 nM TFPI [5]: 0.071
FXa assay OD, 10 nM Ab, 10 nM TFPI [5]: 0.332
FXa assay OD, 20 nM Ab, 10 nM TFPI [5]: 0.424
A405, TF/FVIIa/FX complex assay, Ab 1.56 nM [6]: 0.14
A405, TF/FVIIa/FX complex assay, Ab 3.13 nM [6]: 0.151
A405, TF/FVIIa/FX complex assay, Ab 6.25 nM [6]: 0.15
A405, TF/FVIIa/FX complex assay, Ab 12.5 nM [6]: 0.157
A405, TF/FVIIa/FX complex assay, Ab 25 nM [6]: 0.272
A405, TF/FVIIa/FX complex assay, Ab 50 nM [6]: 0.77
A405, TF/FVIIa/FX complex assay, Ab 100 nM [6]: 0.905
effect of inhibiting TFPI, FXa activity assay, Ab 10 nM [2]: ~69%
effect of inhibiting TFPI, FXa activity assay, Ab 20 nM [2]: ~88%

B8: clone 1214 (antibody, V domains shown)
VH: EVQLVESGGGLVKPGGSLRLSCAASGFTFSSYAMNWVRQAPGKGLEWVSTITTGGSYTYYADSVEGRFTISRDNAKNSLYLQMNSLRAEDTAVYYCARQDGNFLMDYWGQGTLVTVSS
VL: DVVMTQTPLSLPVTLGQPASISCKSSQSLLDVDGKTYLNWLQQRPGQSPKRLIYLVSKLDSGVPDRFTGSGSGTDFTLKISRVEAEDVGVYYCWQGTHFPFTFGQGTKVEIKR
FXa assay % of FXa alone, 2.5 nM Ab, 10 nM TFPI [11]: 6.9%
FXa assay % of FXa alone, 5 nM Ab, 10 nM TFPI [11]: 23.2%
FXa assay OD, 2.5 nM Ab, 10 nM TFPI [11]: 0.06
FXa assay OD, 5 nM Ab, 10 nM TFPI [11]: 0.202
FXa assay OD, 10 nM Ab, 10 nM TFPI [11]: 0.545
FXa assay OD, 20 nM Ab, 10 nM TFPI [11]: 0.672
effect of inhibiting TFPI, FXa activity assay, Ab 10 nM [2]: ~63%
effect of inhibiting TFPI, FXa activity assay, Ab 20 nM [2]: ~77%

B9: clone 1015 (antibody, V domains shown)
VH: EVQLVESGGGLVKPGGSLRLSCAASGFTFSSYAMNWVRQAPGKGLEWVSTITTGGSHTYYADSVEGRFTISRDNAKNSLYLQMNSLRAEDTAVYYCARQDGNFLMDYWGQGTLVTVSS
VL: DVVMTQTPLSLPVTLGQPASISCKSSQSLLDIDGKTYLNWLQQRPGQSPKRLIYLVSKLDSGVPDRFTGSGSGTDFTLKISRVEAEDVGVYYCWQGTHFPFTFGQGTKVEIKR
% of Normalized, TF/FVIIa/FX complex assay, Ab 1.56 nM [8]: 15.4%
% of Normalized, TF/FVIIa/FX complex assay, Ab 3.13 nM [8]: 16.1%
% of Normalized, TF/FVIIa/FX complex assay, Ab 6.25 nM [8]: 17.2%
% of Normalized, TF/FVIIa/FX complex assay, Ab 12.5 nM [8]: 19.4%
% of Normalized, TF/FVIIa/FX complex assay, Ab 25 nM [8]: 29.3%
% of Normalized, TF/FVIIa/FX complex assay, Ab 50 nM [8]: 100%
% of Normalized, TF/FVIIa/FX complex assay, Ab 100 nM [8]: 103%
effect of inhibiting TFPI, FXa activity assay, Ab 10 nM [2]: ~71%
effect of inhibiting TFPI, FXa activity assay, Ab 20 nM [2]: ~83%
A405, TF/FVIIa/FX complex assay, Ab 1.56 nM [9]: 0.141
A405, TF/FVIIa/FX complex assay, Ab 3.13 nM [9]: 0.148
A405, TF/FVIIa/FX complex assay, Ab 6.25 nM [9]: 0.158
A405, TF/FVIIa/FX complex assay, Ab 12.5 nM [9]: 0.179
A405, TF/FVIIa/FX complex assay, Ab 25 nM [9]: 0.269
A405, TF/FVIIa/FX complex assay, Ab 50 nM [9]: 0.919
A405, TF/FVIIa/FX complex assay, Ab 100 nM [9]: 0.944
FXa assay % of FXa alone, 2.5 nM Ab, 10 nM TFPI [3]: 6.5%
FXa assay % of FXa alone, 5 nM Ab, 10 nM TFPI [3]: 14%
FXa assay OD, 2.5 nM Ab, 10 nM TFPI [3]: 0.0465
FXa assay OD, 5 nM Ab, 10 nM TFPI [3]: 0.101
FXa assay OD, 10 nM Ab, 10 nM TFPI [3]: 0.512
FXa assay OD, 20 nM Ab, 10 nM TFPI [3]: 0.594

More lines, now with the values ahead:

FXa assay % of FXa alone, 2.5 nM Ab, 10 nM TFPI [7]: 5.6%
FXa assay % of FXa alone, 10 nM Ab, 10 nM TFPI [7]: 5.3%
B4: clone A25 (antibody, V domains shown)
VH: EVQLVESGGGLVKPGGSLRLSCAASGFTFSSYAMNWVRQAPGKGLEWVSTITTGGSHTYYADSVEGRFTISRDNAKNSLYLQMNSLRAEDTAVYYCARQDGNFLMDYWGQGTLVTVSS
VL: DVVMTQTPLSLPVTLGQPASISCKSSQSLLDRDGKTYLNWLQQRPGQSPKRLIYLVSKLDSGVPDRFTGSGSGTDFTLKISRVEAEDVGVYYCWQGTHFPFTFGQGTKVEIKR

FXa assay % of FXa alone, 2.5 nM Ab, 10 nM TFPI [7]: 4.8%
FXa assay % of FXa alone, 5 nM Ab, 10 nM TFPI [7]: 5.3%
FXa assay % of FXa alone, 10 nM Ab, 10 nM TFPI [7]: 4.5%
FXa assay % of FXa alone, 20 nM Ab, 10 nM TFPI [7]: 5.6%
B5: clone A63 (antibody, V domains shown)
VH: EVQLVESGGGLVKPGGSLRLSCAASGFTFSSYAMNWVRQAPGKGLEWVSTITTGGSYTYYADSVQGRFTISRDNAKNSLYLQMNSLRAEDTAVYYCARQDGNFLMDYWGQGTLVTVSS
VL: DVVMTQTPLSLPVTLGQPASISCKSSQSLLDVDGKTYLNWLQQRPGQSPKRLIYLVSKLDSGVPDRFTGSGSGTDFTLKISRVEAEDVGVYYCWQGTHFPFTFGQGTKVEIKR

% of Normalized, TF/FVIIa/FX complex assay, Ab 1.56 nM [8]: 14.5%
% of Normalized, TF/FVIIa/FX complex assay, Ab 3.13 nM [8]: 15%
% of Normalized, TF/FVIIa/FX complex assay, Ab 6.25 nM [8]: 16.3%
% of Normalized, TF/FVIIa/FX complex assay, Ab 12.5 nM [8]: 19.7%
% of Normalized, TF/FVIIa/FX complex assay, Ab 25 nM [8]: 33.4%
% of Normalized, TF/FVIIa/FX complex assay, Ab 50 nM [8]: 100%
% of Normalized, TF/FVIIa/FX complex assay, Ab 100 nM [8]: 103%
effect of inhibiting TFPI, FXa activity assay, Ab 10 nM [2]: ~70%
effect of inhibiting TFPI, FXa activity assay, Ab 20 nM [2]: ~90%
A405, TF/FVIIa/FX complex assay, Ab 1.56 nM [9]: 0.134
A405, TF/FVIIa/FX complex assay, Ab 3.13 nM [9]: 0.138
A405, TF/FVIIa/FX complex assay, Ab 6.25 nM [9]: 0.15
A405, TF/FVIIa/FX complex assay, Ab 12.5 nM [9]: 0.181
A405, TF/FVIIa/FX complex assay, Ab 25 nM [9]: 0.307
A405, TF/FVIIa/FX complex assay, Ab 50 nM [9]: 0.919
A405, TF/FVIIa/FX complex assay, Ab 100 nM [9]: 0.943
FXa assay % of FXa alone, 2.5 nM Ab, 10 nM TFPI [10]: 6%
FXa assay % of FXa alone, 5 nM Ab, 10 nM TFPI [10]: 10.6%
FXa assay OD, 2.5 nM Ab, 10 nM TFPI [10]: 0.046
FXa assay OD, 5 nM Ab, 10 nM TFPI [10]: 0.0815
FXa assay OD, 10 nM Ab, 10 nM TFPI [10]: 0.54
FXa assay OD, 20 nM Ab, 10 nM TFPI [10]: 0.696
B6: clone 4017 (antibody, V domains shown)
VH: EVQLVESGGGLVKPGGSLRLSCAASGFTFSSYAMNWVRQAPGKGLEWVGTITTGGSYTYYADSVQGRFTISRDNAKNSLYLQMNSLRAEDTAVYYCARQDGYFLMDYWGQGTLVTVSS
VL: DVVMTQTPLSLPVTLGQPASISCKSSQSLLDIDGKTYLNWLQQRPGQSPKRLIYLVSKLDSGVPDRFTGSGSGTDFTLKISRVEAEDVGVYYCWQGTHFPFTFGQGTKVEIKR

FXa assay % of FXa alone, 2.5 nM Ab, 10 nM TFPI [7]: 5%
FXa assay % of FXa alone, 20 nM Ab, 10 nM TFPI [7]: 4%
B7: clone A24 (antibody, V domains shown)
VH: EVQLVESGGGLVKPGGSLRLSCAASGFTFHSYAMNWVRQAPGKGLEWVSTITTRGSYTYYADSVEGRFTISRDNAKNSLYLQMNSLRAEDTAVYYCARQDGNFLMDYWGQGTLVTVSS
VL: DVVMTQTPLSLPVTLGQPASISCKSSQSLLDVDGKTYLNWLQQRPGQSPKRLIYLVSKLDSGVPDRFTGSGSGTDFTLKISRVEAEDVGVYYCWQGTHFPFTFGQGTKVEIKR

Source: patent publication US20180030151A1 (MOGAM INSTITUTE FOR BIOMEDICAL RESEARCH, published 2018)
